{"source": "FireProtDB (doi:10.1139/o86-132)", "settings": "Aspergillus oryzae (strain ATCC 42149 / RIB 40), pH 7, 25 °C, GdnHCl, CD, cacodylate 0.013 M, reversible: yes, whole UniProt chain shown"}
{"protein": "Guanyl-specific ribonuclease T1 wild type, P00651 (protein) MMYSKLLTLTTLLLPTALALPSLVERACDYTCGSNCYSSSDVSTAQAAGYQLHEDGETVGSNSYPHKYNNYEGFDFSVSSPYYEWPILSSGDVYSGGSPGADRVVFNENNQLAGVITHTGASGNNFVECT", "values": [{"measurement": "denaturant m value", "setting": "(NH4)2SO4 0.15 M", "result": 2.85, "unit": "kcal/mol/M"}, {"measurement": "denaturant midpoint (higher = more stable)", "setting": "(NH4)2SO4 0.15 M", "result": 3.16, "unit": "M"}, {"measurement": "unfolding free energy", "setting": "(NH4)2SO4 0.15 M", "result": 9.6, "unit": "kcal/mol"}, {"measurement": "denaturant m value", "setting": "(NH4)2SO4 0.30 M", "result": 2.9, "unit": "kcal/mol/M"}, {"measurement": "denaturant midpoint (higher = more stable)", "setting": "(NH4)2SO4 0.30 M", "result": 3.37, "unit": "M"}, {"measurement": "unfolding free energy", "setting": "(NH4)2SO4 0.30 M", "result": 10.3, "unit": "kcal/mol"}, {"measurement": "denaturant m value", "setting": "CsCl 0.49 M", "result": 3.18, "unit": "kcal/mol/M"}, {"measurement": "denaturant midpoint (higher = more stable)", "setting": "CsCl 0.49 M", "result": 2.81, "unit": "M"}, {"measurement": "unfolding free energy", "setting": "CsCl 0.49 M", "result": 8.9, "unit": "kcal/mol"}, {"measurement": "denaturant m value", "setting": "KCl 0.1 M", "result": 3.04, "unit": "kcal/mol/M"}, {"measurement": "denaturant midpoint (higher = more stable)", "setting": "KCl 0.1 M", "result": 2.9, "unit": "M"}, {"measurement": "unfolding free energy", "setting": "KCl 0.1 M", "result": 8.8, "unit": "kcal/mol"}, {"measurement": "denaturant m value", "setting": "Li2SO4 0.20 M", "result": 2.82, "unit": "kcal/mol/M"}, {"measurement": "denaturant midpoint (higher = more stable)", "setting": "Li2SO4 0.20 M", "result": 3.16, "unit": "M"}, {"measurement": "unfolding free energy", "setting": "Li2SO4 0.20 M", "result": 9.6, "unit": "kcal/mol"}, {"measurement": "denaturant m value", "setting": "Li2SO4 0.40 M", "result": 2.82, "unit": "kcal/mol/M"}, {"measurement": "denaturant midpoint (higher = more stable)", "setting": "Li2SO4 0.40 M", "result": 3.35, "unit": "M"}, {"measurement": "unfolding free energy", "setting": "Li2SO4 0.40 M", "result": 10.2, "unit": "kcal/mol"}, {"measurement": "denaturant m value", "setting": "LiBr 0.76 M", "result": 3.14, "unit": "kcal/mol/M"}, {"measurement": "denaturant midpoint (higher = more stable)", "setting": "LiBr 0.76 M", "result": 2.15, "unit": "M"}, {"measurement": "unfolding free energy", "setting": "LiBr 0.76 M", "result": 6.55, "unit": "kcal/mol"}, {"measurement": "denaturant m value", "setting": "LiBr 1.52 M", "result": 3.41, "unit": "kcal/mol/M"}, {"measurement": "denaturant midpoint (higher = more stable)", "setting": "LiBr 1.52 M", "result": 1.48, "unit": "M"}, {"measurement": "unfolding free energy", "setting": "LiBr 1.52 M", "result": 4.51, "unit": "kcal/mol"}, {"measurement": "denaturant m value", "setting": "LiCi 0.50 M", "result": 2.71, "unit": "kcal/mol/M"}, {"measurement": "denaturant midpoint (higher = more stable)", "setting": "LiCi 0.50 M", "result": 2.75, "unit": "M"}, {"measurement": "unfolding free energy", "setting": "LiCi 0.50 M", "result": 8.36, "unit": "kcal/mol"}, {"measurement": "denaturant m value", "setting": "LiCi 0.99 M", "result": 3.13, "unit": "kcal/mol/M"}, {"measurement": "denaturant midpoint (higher = more stable)", "setting": "LiCi 0.99 M", "result": 2.57, "unit": "M"}, {"measurement": "unfolding free energy", "setting": "LiCi 0.99 M", "result": 7.8, "unit": "kcal/mol"}, {"measurement": "denaturant m value", "setting": "LiSCN 0.09 M", "result": 3.05, "unit": "kcal/mol/M"}, {"measurement": "denaturant midpoint (higher = more stable)", "setting": "LiSCN 0.09 M", "result": 2.72, "unit": "M"}, {"measurement": "unfolding free energy", "setting": "LiSCN 0.09 M", "result": 8.27, "unit": "kcal/mol"}, {"measurement": "denaturant m value", "setting": "LiSCN 0.34 M", "result": 2.87, "unit": "kcal/mol/M"}, {"measurement": "denaturant midpoint (higher = more stable)", "setting": "LiSCN 0.34 M", "result": 2.06, "unit": "M"}, {"measurement": "unfolding free energy", "setting": "LiSCN 0.34 M", "result": 6.25, "unit": "kcal/mol"}, {"measurement": "denaturant m value", "setting": "LiSCN 0.69 M", "result": 3.08, "unit": "kcal/mol/M"}, {"measurement": "denaturant midpoint (higher = more stable)", "setting": "LiSCN 0.69 M", "result": 1.34, "unit": "M"}, {"measurement": "unfolding free energy", "setting": "LiSCN 0.69 M", "result": 4.08, "unit": "kcal/mol"}, {"measurement": "denaturant m value", "setting": "NH4Cl 0.45 M", "result": 3.02, "unit": "kcal/mol/M"}, {"measurement": "denaturant midpoint (higher = more stable)", "setting": "NH4Cl 0.45 M", "result": 2.83, "unit": "M"}, {"measurement": "unfolding free energy", "setting": "NH4Cl 0.45 M", "result": 8.5, "unit": "kcal/mol"}, {"measurement": "denaturant m value", "setting": "Na2SO4 0.15 M", "result": 2.83, "unit": "kcal/mol/M"}, {"measurement": "denaturant midpoint (higher = more stable)", "setting": "Na2SO4 0.15 M", "result": 3.12, "unit": "M"}, {"measurement": "unfolding free energy", "setting": "Na2SO4 0.15 M", "result": 9.49, "unit": "kcal/mol"}, {"measurement": "denaturant m value", "setting": "NaBr 0.50 M", "result": 3.42, "unit": "kcal/mol/M"}, {"measurement": "denaturant midpoint (higher = more stable)", "setting": "NaBr 0.50 M", "result": 2.53, "unit": "M"}, {"measurement": "unfolding free energy", "setting": "NaBr 0.50 M", "result": 7.7, "unit": "kcal/mol"}, {"measurement": "denaturant m value", "setting": "NaBr 0.99 M", "result": 2.97, "unit": "kcal/mol/M"}, {"measurement": "denaturant midpoint (higher = more stable)", "setting": "NaBr 0.99 M", "result": 2.27, "unit": "M"}, {"measurement": "unfolding free energy", "setting": "NaBr 0.99 M", "result": 6.91, "unit": "kcal/mol"}, {"measurement": "denaturant m value", "setting": "NaSCN 0.25 M", "result": 3.11, "unit": "kcal/mol/M"}, {"measurement": "denaturant midpoint (higher = more stable)", "setting": "NaSCN 0.25 M", "result": 2.39, "unit": "M"}, {"measurement": "unfolding free energy", "setting": "NaSCN 0.25 M", "result": 7.27, "unit": "kcal/mol"}, {"measurement": "denaturant m value", "setting": "NaSCN 0.49 M", "result": 2.93, "unit": "kcal/mol/M"}, {"measurement": "denaturant midpoint (higher = more stable)", "setting": "NaSCN 0.49 M", "result": 1.91, "unit": "M"}, {"measurement": "unfolding free energy", "setting": "NaSCN 0.49 M", "result": 5.8, "unit": "kcal/mol"}, {"measurement": "denaturant m value", "setting": "RbCl 0.50 M", "result": 2.89, "unit": "kcal/mol/M"}, {"measurement": "denaturant midpoint (higher = more stable)", "setting": "RbCl 0.50 M", "result": 2.89, "unit": "M"}, {"measurement": "unfolding free energy", "setting": "RbCl 0.50 M", "result": 8.4, "unit": "kcal/mol"}]}
